Where a chain is given by its changes, count along the chain named.
B1: C703 (antibody, V domains shown)
VH: EVQLLESGGGLVQPGGSLRLSCAGSGFTFSHYALSWVRQAPGKGLEWVSCISGTGGNSHYADSVKGRFTSSRDNSKNILYLQMNSLRAEDTAVYFCAKGGDFWSGYLIPFDSWGQGTLVTVSS
VL: SYELTQSPSVSVAPGKTARITCGGDSIGSKNVHWYQQKPGQAPVLVMYYDNDRPSGIPERFSGYNSGNTATLSISRVEAGDEADYYCLVWDGSGDPWVFGGGTKLTVL
B2: C707 (antibody, V domains shown)
VH: EVQLVESGGGLVKPGGSLRLSCAASGFTFSSYSMNWVRQAPGKGLAWVSSISSSNNIIYYADSVKGRFTISRDDAKDSLYLHMKSLRADDTAVYFCARVPSWAPYQLLPGPFDYWGQGILVTVSS
VL: IRMTQSPSSLSASVGDRVTITCQASQAIASYLSWYQHKPGRAPKLLIYDASNLEIGVPSRFSGSGSGTDFTFTISSLQSEDNATYYCQQYESLPGTFGGGTKVEIK
B3: C530 (antibody, V domains shown)
VH: QVQLVESGGGVAQPGRSLRLSCAASGFTFSRYGMHWVRQAPGKGLEWVAVIWHDGSDKYCADFVKGRFTISRDNSKNTLYMQMDSLRAEDTAVYYCARGGRPDHETGIAVLGEYYFDSWGQGTLVTVSS
VL: SYELTQPPSVSVSPGQTARITCSGDAFPLQYGYWYQQKPGQAPVLVIYKDKERPSGISERFSGSSSGTTVTLTISGVQAEDEADYYCQSADTNGVVFGGGTSLTVL
B4: C528 (antibody, V domains shown)
VH: EVQLVESGGGLVQPGGSLRLSCAASGFTFRNYDMHWVRQVAGKGLEWVSAIGTSGDTYYPDSVKGRFTISRENAKNSVYLQMNNLRAGDTAVYFCVRDREISGWTGWYFDLWGRGTLVTVSS
VL: DIQMTQSPSSLSASVGDRVTITCRASQTIHNYLNWYQQIPGKAPRLLIYATNTLQSGVPSRFSGSGSGTDFTLTITGLQPEDFATYYCQQSYSTPPITFGQGTRLEIK
B5: C567 (antibody, V domains shown)
VH: QVQLQESGPGLVKPSETLSLTCTVSGGSVINGSYYWSWIRQPPGKGLEWIGFVYYSGSTNYNPSLKSRVTISVDTSKNQFSLNLNSVTAADTAVYYCATGSKSSYYFDYWGQGTLVTVSS
VL: QSVLTQPPSVSAAPGQKVTISCSGSSSNIGNNYVSWYQQLPGAAPKLLIYENNMRPSGIPDRFSGSKSGTSATLGITGLQTGDEADYYCGTWDSSLSVPYVFGTGTRVTVL
B6: C047 (antibody, V domains shown)
VH: QVQLQESGPGLVKPSETLSLTCTVSGGSISSTTYYWDWIRQSPGKGLEWIGSIFYTGITYYSPSLKSRVTISVDTSKNQFSLRLNSMTAADTAVYYCARRLRQLWFGPWFDPWGQGTLVTVSS
VL: QSALTQPPSASGSPGQSVTISCTGTRSDVGDYNYVSWYQQHPDKAPKLIIYEVTKRPSGVPDRFSGSKSGNTASLTVSGLQAEDEADYYCSSYAGSNNVMFGGGTKLTVL
B7: C710 (antibody, V domains shown)
VH: B6 VH with T23I, S30N, S67T
VL: B6 VL with Y51F, N97S
B8: C046 (antibody, V domains shown)
VH: EVQLVESGGGLAQPGRSLRLSCAASGFTFDDYAMHWVRQAPGKGLEWVSGINWNSGSLGYADSVKGRFTISRGIAKNSLYLQMNSLRPEDTAFYYCAKAGVRGIAAAGPDLNFDYWGQGTLVTVSS
VL: EIVLTQSPATLSLSPGERATLSCRASQSVSSYLAWYQQKPGQAPRLLIYDASNRATGIPARFIGSGSGTDFTLTISSLEPEDFAVYYCQQRITFGQGTRLEIK
B9: C529 (antibody, V domains shown)
VH: EVQLLESGGGLVQPGGSLRLSCAASGFTFNNYAMNWVRQAPGRGLEWVSGISGSGANTYYADSVKGRFTISRDNPKNTLSLQMNSLRAEDTALYYCAKVLSPTYYDSWSGPDAFDFWGQGTMVTVSS
VL: DIQMTQSPSTLSASVGDRVTITCRASQTISPWLAWYQQKPGKAPNLLIYKASSLESGVPSRFSGSGSGTEFTLTISSLQPDDFATYYCQQYNSYSSWTFGQGTKVEIK
B10: C526 (antibody, V domains shown)
VH: QVQLVQSGAEVKKPGASVKVSCKASGHTFTTYYLHWVRQAPGQGLEWMGRIDPSGGSTTYAQKFQGRVTMTRDTSTSTVYMELSSLRSEDTALYYCARGGYCGSTSCSPDDYFDYWGQGTLVTVSS
VL: SYELTQPPSVSVAPGKTARITCGGNNIGSKSVHWYQQKPGQAPVLVIYYDSDRPSGIPERFSGSNSGNTATLTISRVEAGDEADYYCQVWDSSSDHYYVFGTGTKVTVL
B11: C527 (antibody, V domains shown)
VH: QVQLVESGGGVVQPGRSLRLSCAASGFTFSSYGMHWVRQAPGKGLEWVALIGYDGTDKYYAENVKGRFTISRDNSKNTLFLQMNSLRGGDTAVYLCARDGIPFRYGMDVWGQGTTVTVSS
VL: DIQMTQSPSTLSASVGDRVTITCRASQSIDIWLAWYQQKPGKAPKFLIHKASTLESGVPSRFSGSGSGTEFTLTISSLQPDDFATYYCQHYHSYSGTFGQGTKVEIK
B12: C708 (antibody, V domains shown)
VH: EVQLVESGGGLVQPGGSLRLSCAASGFSFSTYWMSWVRQAPGKGLEWVADIKQDGSEKYFVDSVKGRFTISRDNAKNSLYLHLNSLRAEDTAVYYCAREMAGSGNYYWFGYGMDVWGQGTTVTVSS
VL: IRMTQSPSSVSASVGDRVTITCRASQGISSWLAWYQQKPGKAPKLLIYAASSLQSGVPSRFSGSESGTDFTLTISSLQPEDFATYYCQQANSFPLTFGGGTKVEIK
B13: C704 (antibody, V domains shown)
VH: VQLVESGGGVVQPGRSLRLSCAASGFTFSRYGMHWVRQAPGKGLEWVAVSSYDGSNEYYANSVKGRFTISRDNSKNTLYLQMNSLRAEDTAVYYCAKTGASYCGGDCPFHFDYWGQGTLVTVSS
VL: IRMTQSPSSLSASVGDRVTITCQASQDINNYLNWYQQKPGKAPKLLIYDASDLETGVPSRFSGGGSGTDFTFTISSLQPEDIATYYCQHYNNLPITFGQGTRLEIK
B14: C531 (antibody, V domains shown)
VH: EVQLVESGGGLVQPGRSLRLSCVATGFTFDDFAMHWVRQAPGKGLEWVSGISWNGGIIGYVDSVKGRFTISRDNAKNSLYLQMNSLRPEDTALYYCVKGYRYYYDILTGYYNDAGAFDYWGQGTLVTVSS
VL: DIQSTQSPSFLSASVGDRVAITCRASQGISSYLAWYQQKPGKAPKLLIYPASTLQSGVPSGFSGSGSGTEFTLTISSLQPEDFATYYCQQLNDYPFTFGPGTKVDIK
B15: C525 (antibody, V domains shown)
VH: EVQLVESGGRLVQPGRSLRLSCAASGFTFDDYAIHWVRQAPGKGLEWVSGISWNSGSIGYADSVRGRFTISRDNAKNSLYLQMNSLRAEDTALYYCAKGLDSSSSASPDYWGQGTLVTVSS
VL: DIQMTQSPSSVSASVGDRVTITCRASQDISSWLAWYQQKPGKAPKLLIYLASSLQSGVPSRFSGSGSGTDFILTISSLQPEDFGTYYCQQGNSFPLTFGGGTKVEIK
B16: C565 (antibody, V domains shown)
VH: EVQLVESGGGLIQPGGSLRLSCAASGLIVSSNYMNWVRQAPGKGLEWVSLLYSGGSTYYADSVKGRFTISRDNSKNTLYLQMNSLRPEDTAVYYCARDLSVVGAFDIWGQGTMVTVSS
VL: EIVLTQSPGTLSLSPGERATLSCRASQSLPSTYLAWYQQKRGQAPRLLIYGASSRATGIPDRFSGSGSGTDFTLTISRLEPEDFAVYYCQQYGTSPRVTFGPGTKVDIK
B17: C532 (antibody, V domains shown)
VH: EVQLVQSGAEVKKPGESLKISCKGSGYRFTNYWIGWVRQMPGKGLEWIGNIFPGDSDSRYSPSFQGQVTISVDMSITTAYLHWSSLKASDTAIYYCARLSERWYSPFDSWGQGTLVTVSS
VL: EIVMTQSPATLSVSPGERATLSCRASQSVSSNLAWYQQKPGQAPRLLIYGASTRATGFPARFSGSGSGTEFTLTISSLQSEDFAVYFCQQYNNWPPGGFTFGPGTKVDIK
B18: C709 (antibody, V domains shown)
VH: QVQLVQSGAEVRKPGASVKVSCMASGYTFNTYDINWVRQGTGQGLEWMGWMNPNSGNTGHAQKFQGRVAMTVNTSMNTAYMELSSLRSEDTAVYYCARGADMLNVAVGADFDYWGQGTLVTVSS
VL: QSALTQPPSASGSPGQSVTISCTGTSSDVGGYNFVSWFQQHPGKAPKLMIYEVSKRPSGVPDRFSGSKSANTASLTVSGLQAEDEADYFCSSYAGSNNWVFGGGTKLTVL
B19: C566 (antibody, V domains shown)
VH: QVQLQESGPGLVKSSQTLSLNCSVFGASISSGGYYWTWIRQHPGKGLEWIGYIHYRGTYYNPSLKSRVTMSVDTSKNQFSLKVRSVSAADTAIYYCARAIVVVTLNWFDLWGQGTLVTVSS
VL: NFMLTQPHSVSESPGKTVTISCSGSGGSIASNYVQWYQQRPGSAPTAVIYEDNQRPSGVPDRFSGSIDSSSNSASLTISGLKTEDEADYYCQSYDTSNPVIFGGGTKLTV
B20: C048 (antibody, V domains shown)
VH: VQLQESGPGLVKPSETLSLTCAVSGGSVSSGNYYWNWIRQPPGKGLEWIGYIYYSGSTNYNPSLKSRVTISVDTSKNQFSLKLNSVTAADTAVYHCARETYYYDSSGYYISDAFDIWGQGTMVTVSS
VL: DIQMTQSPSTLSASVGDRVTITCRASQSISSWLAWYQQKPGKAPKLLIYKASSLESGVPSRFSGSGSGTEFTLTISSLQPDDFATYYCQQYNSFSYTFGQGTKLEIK
B21: C049 (antibody, V domains shown)
VH: QVQLQESGPGLVKPSETLSLTCTVSGGSVSSGTFYWSWIRQPPGKGLEWIGYIHYSGSTNYNPSLKSRVTISVDTSKNQFSLRLSSVTAADTAVYYCARESFYYDRSGYYGSDAFDIWGQGTMVTVSS
VL: DIQMTQSPSTLSSSVGDRVTITCRASQNISRWLAWYQQKPGKAPKLLIYKASTLESGVPSRFSGSGSGTKFTLTISSLQPDDFATYYCQQYNSYLYTFGQGTKLEIK
B22: C706 (antibody, V domains shown)
VH: EVQLVESGGGLVKPGGSLRLSCAASGFTFSNVWMSWVRQAPGKGLEWVGRIKSKIDGGTTEYAAPVKGRFIISRDDSKNTLSLQMNSLKTEDTAVYYCTTDHGREPPVHWGQGTLVTVSS
VL: EIVLTQSPGTLSLSPGERASLSCRARQSVYSNYLAWYQHKSGQAPRLLFYGASSRATDIPDRFSASGSGTDFTLTISRLEPEDFAVYYCLQYGPSPTFGPGTRLEIK

Assays:
[1] = target: SARS-CoV-2 spike protein receptor binding domain (RBD) (SARS-CoV-2, UniProt P0DTC2 319-539); assay: ELISA on plate-coated RBD
[2] = target: SARS-CoV-2 spike protein receptor binding domain (RBD), wild type (SARS-CoV-2, UniProt P0DTC2 319-539); assay: ELISA, RBD protein coated on plate, antibody titrated

Row | Binder | EC50 [1] [mg/L] | EC50 [2] [mg/L]
1 | B1 | 0.0109 | 
2 | B2 | 0.026 | 
3 | B3 |  | 0.0105
4 | B4 |  | 0.00566
5 | B5 | 0.0189 | 
6 | B6 | 0.0111 | 
7 | B7 | 0.0178 | 
8 | B8 | 0.00402 | 
9 | B9 |  | 0.008
10 | B10 |  | 0.0182
11 | B11 |  | 0.0134
12 | B12 | 0.13 | 
13 | B13 | 0.0134 | 
14 | B14 |  | 0.00684
15 | B15 |  | 0.0106
16 | B16 | 0.00127 | 
17 | B17 |  | 0.001
18 | B18 | 0.00756 | 
19 | B19 | 0.00588 | 
20 | B20 | 0.0048 | 
21 | B21 | 0.00409 | 
22 | B22 | 0.0735 | 
